Assay results from US20050002904A1, “Uses of vascular endothelial growth factor and type I collagen inducible protein (VCIP)” (priority 2003, published 2005).

Target: αvβ3 and α5β1 integrins presented on adjacent cells
Experiment: cell-based or functional assay

B1: wild-type VCIP/PAP2b, HA-tagged, expressed from pLNCX2-VCIP-RGD, O14495 1-311 (protein)
chain: YPYDVPDYAYPYDVPDYAYPYDVPDYAMQNYKYDKAIVPESKNGGSPALNNNPRRSGSKRVLLICLDLFCLFMAGLPFLIIETSTIKPYHRGFYCNDESIKYPLKTGETINDAVLCAVGIVIAILAIITGEFYRIYYLKKSRSTIQNPYVAALYKQVGCFLFGCAISQSFTDIAKVSIGRLRPHFLSVCNPDFSQINCSEGYIQNYRCRGDDSKVQEARKSFFSGHASFSMYTMLYLVLYLQARFTWRGARLLRPLLQFTLIMMAFYTGLSRVSDHKHHPSDVLAGFAQGALVACCIVFFVSDLFKTKTTLSLPAPAIRKEILSPVDIIDRNNHHNMM
With B1 the % cell aggregates, HEK cells stably expressing pLNCX2-VCIP-RGD (WT), no substance was 94%.

B2: mutant VCIP/PAP2b-RGE, HA-tagged, expressed from pLNCX2-VCIP-RGE, O14495 1-311 (protein)
chain: YPYDVPDYAYPYDVPDYAYPYDVPDYAMQNYKYDKAIVPESKNGGSPALNNNPRRSGSKRVLLICLDLFCLFMAGLPFLIIETSTIKPYHRGFYCNDESIKYPLKTGETINDAVLCAVGIVIAILAIITGEFYRIYYLKKSRSTIQNPYVAALYKQVGCFLFGCAISQSFTDIAKVSIGRLRPHFLSVCNPDFSQINCSEGYIQNYRCRGEDSKVQEARKSFFSGHASFSMYTMLYLVLYLQARFTWRGARLLRPLLQFTLIMMAFYTGLSRVSDHKHHPSDVLAGFAQGALVACCIVFFVSDLFKTKTTLSLPAPAIRKEILSPVDIIDRNNHHNMM
Work on B2 yielded a % cell aggregates, HEK cells stably expressing pLNCX2-VCIP-RGE (MT), no substance of 0%.

NYRCRADDSK [mutant peptide …] was tested, and the % cell aggregates of WT cells with … 10 nM was 92%, the % cell aggregates of WT cells with … 30 nM was 89% and the % cell aggregates of WT cells with … 50 nM was 90%.

With NYRCRGDDSK [peptide …] the % cell aggregates of WT cells with … 10 nM was 67%, the % cell aggregates of WT cells with … 30 nM was 46% and the % cell aggregates of WT cells with … 50 nM was 28%.
